Patent US20200276322A1 (ADMINISTRATORS OF THE TULANE EDUCATIONAL FUND, published 2020)
Square brackets hold non-standard residues; d marks the D form. Ends that are not written are not given here.

Target: GFP1-10 protein
Assay: cell-based or functional assay

## [dR][dK][dK][dR][dW][dF][dR][dR][dR][dR][dP][dK][dW][dK][dK]RDHMVLHEYVNAAGIT [CPP-1(D)-GFP-11]
  split GFP assay, GFP fluorescence over background, 10 µM, 22 °C: 2.2 fold
  split GFP assay, GFP fluorescence over background, 10 µM, 37 °C: 2.1 fold

## G[dR][dK][dK][dR][dR][dQ][dR][dR][dR][dP][dP][dQ]RDHMVLHEYVNAAGIT [Tat(D)-GFP-11]
  split GFP assay, GFP fluorescence against Tat-GFP-11, 40 µM, 37 °C and 22 °C: 2 fold
